Molecular target: T1, Ebolavirus glycoprotein (EGP) of the Zaire strain (Zaire ebolavirus, UniProt Q05320 33-650)
T1 sequence: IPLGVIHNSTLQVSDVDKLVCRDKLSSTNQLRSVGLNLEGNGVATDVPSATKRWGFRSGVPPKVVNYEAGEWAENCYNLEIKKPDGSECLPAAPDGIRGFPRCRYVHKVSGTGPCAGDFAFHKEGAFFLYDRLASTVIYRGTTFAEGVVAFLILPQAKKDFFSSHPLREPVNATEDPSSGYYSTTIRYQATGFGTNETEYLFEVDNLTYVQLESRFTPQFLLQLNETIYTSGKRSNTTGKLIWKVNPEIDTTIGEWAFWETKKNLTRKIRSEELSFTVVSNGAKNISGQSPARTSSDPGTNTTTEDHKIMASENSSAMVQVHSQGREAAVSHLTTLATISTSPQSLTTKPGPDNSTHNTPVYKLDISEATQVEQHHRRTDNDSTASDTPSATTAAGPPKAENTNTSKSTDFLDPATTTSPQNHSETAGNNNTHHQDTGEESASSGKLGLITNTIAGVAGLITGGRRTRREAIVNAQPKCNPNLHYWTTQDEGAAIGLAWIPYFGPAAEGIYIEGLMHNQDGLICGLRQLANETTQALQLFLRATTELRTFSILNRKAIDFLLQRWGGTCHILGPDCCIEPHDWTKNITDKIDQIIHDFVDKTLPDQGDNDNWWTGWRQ
Conditions: both partners purified

B1: TIM-1 (receptor, UniProt Q96D42 21-295, looked up)
chain: SVKVGGEAGPSVTLPCHYSGAVTSMCWNRGSCSLFTCQNGIVWTNGTHVTYRKDTRYKLLGDLSRRDVSLTIENTAVSDSGVYCCRVEHRGWFNDMKITVSLEIVPPKVTTTPIVTTVPTVTTVRTSTTVPTTTTVPMTTVPTTTVPTTMSIPTTTTVLTTMTVSTTTSVPTTTSIPTTTSVPVTTTVSTFVPPMPLPRQNHEPVATSPSSPQPAETHPTTLQGAIRREPTSSPLYSYTTDGNDTVTESSDGLWNNNQTQLFLEHSLLTANTTKG
- ΔSPR: 35 nm

Source: publication PMC12070368 (ACS Applied Nano Materials, 2025)
